The test system of data set [1] is OC[C@H]1O[C@@H](n2cnc3c(O)ncnc32)[C@H](O)[C@@H]1O. In words: Km for inosine and guanosine, transphosphorylation by EA-AP mutant of pENP510. Type of data set: biochemical, Enterobacter aerogenes IFO12010. The note with it: other: transphosphorylation, 100 μmol/ml sodium pyrophosphate, pH 4.0, 30° C., 10 min, cell free extract, Hanes-Woolf. From the text:
(§1) The mutations were introduced into the plasmid DNA by using Quick Change site-directed mutagenesis kit produced by Stratagene. Twenty kinds of oligonucleotides (Table 12) for introduction of mutation from MUT180 (SEQ ID NO: 101) to […] (SEQ ID NO: 120) were synthesized by using a DNA synthesizer (Model 394 produced by Applied Biosystem). The mutations were introduced according to the protocol of Stratagene by using pENP170 as the first template and MUT180 and MUT181 as oligonucleotides for introduction of mutation.
(§2) By using a plasmid introduced with a mutation as a new template, the same procedure was repeated to cumulatively introduce site-specific mutations. Plasmids were prepared from the transformants by the alkali lysis method, and their nucleotide sequences were determined to confirm that the target nucleotides were replaced. […]
(§3) Escherichia coli JM109/pENP180, Escherichia coli JM109/pENP320, Escherichia coli JM109/pENP340, Escherichia coli JM109/pENP410, Escherichia coli JM109/pENP510 and Escherichia coli JM109/pENP520, which were introduced with a plasmid containing each mutant acid phosphatase gene, were each inoculated to 50 ml of L medium containing 100 µg/ml of ampicillin and 1 mM of IPTG, and cultured at 37° C. for 16 hours. […] Km values for inosine and guanosine in the transphosphorylation reaction were measured by using each cell free extract. […]

Data set [2] relates to Nc1nc2c(ncn2[C@@H]2O[C@H](CO)[C@@H](O)[C@H]2O)c(=O)[nH]1. The data set is described as above. Type of data set: biochemical, Enterobacter aerogenes IFO12010. The note with it: other: transphosphorylation, 100 μmol/ml sodium pyrophosphate, pH 4.0, 30° C., 10 min, cell free extract, Hanes-Woolf.
Text: as §1, §2, §3

Data set [3] concerns OC[C@H]1O[C@@H](n2cnc3c(O)ncnc32)[C@H](O)[C@@H]1O. Kind of data set: Km for inosine and guanosine, transphosphorylation by EA-AP mutant of pENP410. Type of data set: biochemical, Enterobacter aerogenes IFO12010. The note with it: other: transphosphorylation, 100 μmol/ml sodium pyrophosphate, pH 4.0, 30° C., 10 min, cell free extract, Hanes-Woolf.
Text: as §1, §2, §3

Data set [4] has as its system Nc1nc2c(ncn2[C@@H]2O[C@H](CO)[C@@H](O)[C@H]2O)c(=O)[nH]1. The data set is described as above. Type of data set: biochemical, Enterobacter aerogenes IFO12010. The note with it: other: transphosphorylation, 100 μmol/ml sodium pyrophosphate, pH 4.0, 30° C., 10 min, cell free extract, Hanes-Woolf.
Text: as §1, §2, §3

Data set [5] relates to OC[C@H]1O[C@@H](n2cnc3c(O)ncnc32)[C@H](O)[C@@H]1O. Kind of data set: Km for inosine and guanosine, transphosphorylation by EA-AP mutant of pENP340. Type of data set: biochemical, Enterobacter aerogenes IFO12010. The note with it: other: transphosphorylation, 100 μmol/ml sodium pyrophosphate, pH 4.0, 30° C., 10 min, cell free extract, Hanes-Woolf.
Text: as §1, §2, §3

Data set [6] has as its system Nc1nc2c(ncn2[C@@H]2O[C@H](CO)[C@@H](O)[C@H]2O)c(=O)[nH]1. The data set is described as above. Type of data set: biochemical, Enterobacter aerogenes IFO12010. The note with it: other: transphosphorylation, 100 μmol/ml sodium pyrophosphate, pH 4.0, 30° C., 10 min, cell free extract, Hanes-Woolf.
Text: as §1, §2, §3

The subject of data set [7] is OC[C@H]1O[C@@H](n2cnc3c(O)ncnc32)[C@H](O)[C@@H]1O. In words: Km for inosine and guanosine, transphosphorylation by EA-AP mutant of pENP320. Type of data set: biochemical, Enterobacter aerogenes IFO12010. The note with it: other: transphosphorylation, 100 μmol/ml sodium pyrophosphate, pH 4.0, 30° C., 10 min, cell free extract, Hanes-Woolf.
Text: as §1, §2, §3

The test system of data set [8] is Nc1nc2c(ncn2[C@@H]2O[C@H](CO)[C@@H](O)[C@H]2O)c(=O)[nH]1. The data set is described as above. The note with it: other: transphosphorylation, 100 μmol/ml sodium pyrophosphate, pH 4.0, 30° C., 10 min, cell free extract, Hanes-Woolf. Type of data set: biochemical, Enterobacter aerogenes IFO12010.
Text: as §1, §2, §3

Data set [9] has as its system OC[C@H]1O[C@@H](n2cnc3c(O)ncnc32)[C@H](O)[C@@H]1O. In words: Km for inosine and guanosine, transphosphorylation by EA-AP mutant of pENP180 (parent). Type of data set: biochemical, Enterobacter aerogenes IFO12010. The note with it: other: transphosphorylation, 100 μmol/ml sodium pyrophosphate, pH 4.0, 30° C., 10 min, cell free extract, Hanes-Woolf. How it is done:
(§4) As a gene for introducing a mutation, a plasmid pENP170 that contained a mutant EA-AP gene coding for L61Q/A63Q/E64A/N67D/S69A/G72D/T133K/E134D/I151T mutant EA-AP was used. pENP170 was prepared as follows.
(§5) As described above, a mutant gene was constructed, in which the nucleotide sequence of −10 region of the deduced promoter sequence located upstream from the coding region of the deduced acid phosphatase derived from Enterobacter aerogenes IFO12010 was changed from AAAAAT to TATAAT, which was the same as lac promoter of Escherichia coli. The plasmid containing this mutant gene was designated as pENP180.
as §3, with “hours. The cells were suspended in 50 mL of 100 mM potassium phosphate buffer (pH 7.0), and disrupted by sonication at 4° C. for 20 minutes.[…]” for “hours.”

Data set [10] relates to Nc1nc2c(ncn2[C@@H]2O[C@H](CO)[C@@H](O)[C@H]2O)c(=O)[nH]1. The description is as above. Type of data set: biochemical, Enterobacter aerogenes IFO12010. The note with it: other: transphosphorylation, 100 μmol/ml sodium pyrophosphate, pH 4.0, 30° C., 10 min, cell free extract, Hanes-Woolf. How it is done:
as §4, §5
as §3, with “hours. The cells were suspended in 50 mL of 100 mM potassium phosphate buffer (pH 7.0), and disrupted by sonication at 4° C. for 20 minutes.[…]” for “hours.”

Data set [11] deals with T1, Escherichia blattae acid phosphatase (EB-AP), wild type, SEQ ID NO: 2 / 124 (Shimwellia blattae, UniProt Q9S1A6).
T1 sequence (Q9S1A6 21-249): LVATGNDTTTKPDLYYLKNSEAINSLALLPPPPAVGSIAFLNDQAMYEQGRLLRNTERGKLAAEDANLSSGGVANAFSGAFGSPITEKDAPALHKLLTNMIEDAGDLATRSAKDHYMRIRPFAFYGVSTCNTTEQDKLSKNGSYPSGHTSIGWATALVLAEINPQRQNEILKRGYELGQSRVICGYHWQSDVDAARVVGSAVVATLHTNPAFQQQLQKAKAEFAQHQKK
In words: Km of inosine for wild-type EB-AP. Type of data set: biochemical.

The test system of data set [12] is OC[C@H]1O[C@@H](n2cnc3c(O)ncnc32)[C@H](O)[C@@H]1O. In words: Km for inosine and guanosine, transphosphorylation by EA-AP mutant of pENP520. The note with it: other: transphosphorylation, 100 μmol/ml sodium pyrophosphate, pH 4.0, 30° C., 10 min, cell free extract, Hanes-Woolf. Type of data set: biochemical, Enterobacter aerogenes IFO12010.
Text: as §1, §2, §3

Data set [13] relates to Nc1nc2c(ncn2[C@@H]2O[C@H](CO)[C@@H](O)[C@H]2O)c(=O)[nH]1. The description is as above. Type of data set: biochemical, Enterobacter aerogenes IFO12010. The note with it: other: transphosphorylation, 100 μmol/ml sodium pyrophosphate, pH 4.0, 30° C., 10 min, cell free extract, Hanes-Woolf.
Text: as §1, §2, §3

These results are taken from patent US6987008B1, “Variant nucleoside-5′-phosphate producing enzyme” (priority 1999, dated 2006).

The Km is the concentration of substrate that gives half-maximal velocity. For “Enterobacter aerogenes IFO12010 acid phosphatase (EA-AP) mutant encoded by pENP510, L61Q/A63Q/E64A/N67D/S69A/A70E/G72D/T133K/E134D/T149G/I151S (parent SEQ ID NO: 10) (Klebsiella aerogenes KCTC 2190; A83Q/A90E/E154D/E84A/G92D/I171S/L81Q/N87D/S89A/T153K/T169G)”, the Km in data set [1] is recorded as 17 mM; in data set [2], 4.0 mM.

As for “Enterobacter aerogenes IFO12010 acid phosphatase (EA-AP) mutant encoded by pENP410, L61Q/A63Q/E64A/N67D/S69A/A70V/G72D/T133K/E134D/T149A/I151S (parent SEQ ID NO: 10) (Klebsiella aerogenes KCTC 2190; A83Q/A90V/E154D/E84A/G92D/I171S/L81Q/N87D/S89A/T153K/T169A)”, the values for the Km in data set [3] and in data set [4] were 18 mM and 4.9 mM, respectively.

For the compound “Enterobacter aerogenes IFO12010 acid phosphatase (EA-AP) mutant encoded by pENP340, L61Q/A63Q/E64A/N67D/S69A/A70V/G72D/E102Q/T133K/E134D/T149S/I151S as printed in Table 13 (parent SEQ ID NO: 10) (Klebsiella aerogenes KCTC 2190; A83Q/A90V/E122Q/E154D/E84A/G92D/I171S/L81Q/N87D/S89A/T153K/T169S)”, the figures for the Michaelis constant (Km) in data set [5] and in data set [6] were 19 mM and 5.1 mM, respectively.

Turning to “Enterobacter aerogenes IFO12010 acid phosphatase (EA-AP) mutant encoded by pENP320, L61Q/A63Q/E64A/N67D/S69A/A70V/G72D/E102L/T133K/E134D/T149S/I151S (parent SEQ ID NO: 10) (Klebsiella aerogenes KCTC 2190; A83Q/A90V/E122L/E154D/E84A/G92D/I171S/L81Q/N87D/S89A/T153K/T169S)”, the Km in data set [7] is 19 mM; in data set [8], 4.6 mM.

In the case of “Enterobacter aerogenes IFO12010 acid phosphatase (EA-AP) mutant encoded by pENP180, L61Q/A63Q/E64A/N67D/S69A/G72D/T133K/E134D/I151T, SEQ ID NO: 10 (Klebsiella aerogenes KCTC 2190; A83Q/E154D/E84A/G92D/I171T/L81Q/N87D/S89A/T153K)”, the Km in data set [9] and in [10] was 40 mM in each case.

Turning to `OC[C@H]1O[C@@H](n2cnc3c(O)ncnc32)[C@H](O)[C@@H]1O` [inosine], the Km in [11] was more than 100 mM.

In the case of “Enterobacter aerogenes IFO12010 acid phosphatase (EA-AP) mutant encoded by pENP520, L61Q/A63Q/E64A/N67D/S69A/A70K/G72D/T133K/E134D/T149G/I151S (parent SEQ ID NO: 10) (Klebsiella aerogenes KCTC 2190; A83Q/A90K/E154D/E84A/G92D/I171S/L81Q/N87D/S89A/T153K/T169G)”, the Michaelis constant (Km) stood at 46 mM in data set [12] and 4.4 mM in [13].
